Here are results for one substance from patent US20240316101.

In series [1] the test system is PEG12-Tregitope peptide (Peg12-Val-Cit-Tregitope-Nle).
The subject of series [2] is PEG2-Tregitope peptide (KKKK-Peg2-Val-Cit-Tregitope-Nle).

For the substance “Recombinant human Cathepsin B (catalog 953-CY of R&D Systems)”, the “cleavage of the Val-Cit site, evaluated by mass spec” value was “For the PEG12 product, successful cleavage was demonstrated” in series [1] and “the PEG2 peptide did not have successful cleavage” in series [2].
